Results: publication PMC7054047 (The FEBS journal, 2019)

B1: WSCP M4FJ52 from Chinese cabbage (Brassica rapa subsp. Pekinensis) (natural protein)
chain: not shown
B2: WSCP A0A087HRG5 from Arabis alpina (natural protein)
chain: not shown
B3: WSCP from Arabidopsis thaliana (natural protein, UniProt Q9C7S6 24-215, looked up)
chain: NEPVKDTAGNPLNTREQYFIQPVKTESKNGGGLVPAAITVLPFCPLGITQTLLPYQPGLPVSFVLALGVGSTVMTSSAVNIEFKSNIWPFCKEFSKFWEVDDSSSAPKEPSILIGGKMGDRNSSFKIEKAGEGARANVYKLTTFYGTVGAIPGVWLSAPQLIITKDTAKTLLVKFKKVDDATTATSNLYFPG

Target: the molecule itself
Experiment: SEC

Stoichiometry N, 4:
B1
B2
B3
